Laboratory results: the DeepSol protein solubility set

Test: soluble on expression in E. coli; label from the status in PepcDB or PDB records
With “MGSDKIHHHHHHMRQLLTYDLMESMRVTNQWMGASARALCSYPQLGLAANPFIQLTAAWGEVAERSFARMAAKPDWGISSIPGADGRDHVISIEPVMERAFGDLIRFDVQGREPTGRKILLVAPMSGHYATLLRKTVLSLLPDADVYITDWHNARDIPVSAGKFDIEDYTHYLVDFMREMGPDTNVIAVCQPAPLALAATAYLAEEDPKAQPRTLTLIGGPIDPDAAATDVTDFGRRVTMGHLEKFVVQRVGFKYAGAGRMVYPGIQQLASFMAMNAETHAKAFSDQVVAVSKGEASDHDKHNVFYDEYLAVMDMTAEFYLSTVERIFKNREIAKNTFVVDGKPVDIGKITSVAVKTVEGGKDDISAPGQCVAALDMLTGLPEEKKANYIEPDAGHYGIFAGKSWRNNIRPLVLEFIDANSGIKTPAKRAKPKLVEDPPVENVAV” the “soluble on expression in E. coli” value was “not soluble”.
In the case of “MAHHHHHHMEEEKAGSSELVLAQESAWDKFGSKLKDMPFLNNFFENPILGKLFGETELAAALREMKMYDQNFKLSELMYLFEFVISKHIVESYLIGDEETLRVHCGQSAFNSLNASINERKKKKVYLDTNVLIYKNHELKGAQRMEESSPWFIFTFHTQQINCLKNANDEIIEGNIDDIREVVYTIALSKHPEPEREGLLYPYIVREFAIIGNTPSW”, the “soluble on expression in E. coli” value was “soluble”.
In the case of “MGSDKIHHHHHHMTKEFTPILLGSDINVYGMARSFNEAYGIRVKALADVQLAATRYSKIVDVELHHGFSADPTFMDVMRKKMEIYKDHKEPVILIACGDGYAELLSKHKDELSKVFIVPYIEYDLLEKLISKEGFYEVAEEYGLPYPKTKIITMDDYKSGKYKDVPFQFPVELKPEDPVSWLNCQFEGRKKTFTLHDENEFEDIVTKIYTHGYTEDLILQDFIPGDDSNMRTLNAYVDKNHQVKMMCLGHPLLEDPTPQSIGNYMTILPAYDEKLYEQVQSFLEKLNYTGMANFDIKYDERDGQYKFFEINLRQGRSSFYVTLNGYNLAKWYIDDYVEDNLSDKKTVYGNKLKSKHVLWMGVPVKIFKEYAFENEAKDTAEELIHEGRYGTTVFYDKDRSLKRWLLMKYMFHNYFARYKKYYEVNKGQYFKKNK”, the “soluble on expression in E. coli” value was “not soluble”.
For “MILIKNGRVMDPKSQRDQVADVLIDGKQIVKIASAIECQEAQVIDASGLIVAPGLVDIHVHFREPGQTHKEDIHTGALAAAAGGVTTVVMMANTNPVISDVETLQEVLASAAKEKIHIYTNASVTQAFNGKDVTDFKALLEAGAVSFSDDGIPLESSKVLKEAFDLANANQTFISLHEEDPQLNGVLGFNEGIAEEHFHFCGATGVAEYSMIARDVMIAYDRQAHVHIQHLSKAESVQVVAFAQQLGAKVTAEVSPQHFSTTEDLLLIAGTSAKMNPPLRTQRDRLAVIEGLKSGVITVIATDHAPHHKDEKTVDDMTKAPSGMTGLETSLSLGLTHLVEPGHLTLMSLLEKMTLNPALLYGFDAGYLAENGPADLVIFADKQERLITENFASKASNSPFIGNKLKGVVKYTIADGEVVYPN”, the “soluble on expression in E. coli” value was “not soluble”.
For “MGSDKIHHHHHHMAHYEVKPSFYNYVFSPYLEPAIKVNPGDTVSLYTDDAFESRITSEDVSPKAAVRNAKFLNPQSGPVYINGAEPGDTLAVHFESIEFTRDWAVSCVMEYFGGLQSNSITKMLQKPLVEEVYIWKSKDKGQTWTNDKIGVTIPANPFCGTLATAPDTEAIQALTPGQFGGNMDCPDICPGHTIYLPVHNPGALFYIGDCHAAQGQGELCGVALEISAKATLKFDVIKNKVTNWPRIESPEKIMSVGSAKPMEDAARIAYADLIDWMVSDYGFKVLDAYELLTMVGGLYVANMVDTTYSLCASIEKKYLKRNS”, the “soluble on expression in E. coli” value was “not soluble”.
In the case of “MGSDKIHHHHHHMLKPSDKWSWYFSDSEGYLMLNLGDDMLFRTNLSRNLLVDCAFIENPFTVDDASDFQLYKEHIACLPLSEPRKAELALYCVAAKRFHKPVQPKSWFFDVQGTGYTPQQGQLISLRNSLNSGIFIALEVGENATLCAYSDLVSFALNGSKTLEFGQVIKVMHDRMSDVNTLLYTPQMAMVS”, the “soluble on expression in E. coli” value was “not soluble”.
For “TPSRVEAFDNSNIHGTDPVSAMVTFLDGKPSKNDYRKYKIKTVEGPDDYATMREVIRRRYWRVLKEGLPMPDLILIDGGKGQIDSAKDVLTNELGLDIPVAGLAKDDKHRTSQLLFGDPLEIVPLERNSQEFYLLQRMQDEVHRFAITFHRQLRSKTGFQSILDGIPG”, the “soluble on expression in E. coli” value was “not soluble”.
For “MGSDKIHHHHHHMLRRYRKLGEILLEKGFITREELDKALEIQKEERKPLGEVLIETGYITEDQLLEALSEQYGVPILKELPKNIPLNVVGSIPKNIIESLHVIPVEKKEDGTLVVVTDNGTNIPRIKQEIRFLTGKNPEIYLVTSRDFSVLYQTYVLGVPLELFEEPYVAIEETPEQVEEEEEEEREVEEAPIVRLVNNIVNRAIEMGASDIHIEPMKRTVRVRFRIDGILRKVLEYQKPQHNSVVARIKIMSGLDVSERRLPQDGKFYTIKGGEQYDFRVSTMPSTFGEKVVMRILKVSDANKRLEELGYSEYNLKRILSLLEKPYGIILVTGPTGSGKSTTLVAMINYLKSESVNIVTAEDPVEYTIEGVTQCQVFPEIGLTFARYLRAFLRQDPDIIMVGEIRDRETAQLAVEASLTGHLVLSTLHTNTAAGAVSRLIEMGIDPHLLGASLIGIIGQRLVRKLCDECKMPGEVRDEQVKSYFEQFFGKVPDQIYYPSEEGCPACKGMRYRGRMAIGEVLIVDEELRELISSKASETEIAKLAVKKGMRTMFQDALEKVLLGQTSIEEVFRVTTPL”, the “soluble on expression in E. coli” value was “not soluble”.
For “GHHHHHHAIAENLYFQSKDVPGFLQQSQSSGPGQPAVWHRLEELYTKKLWHQLTLQVLDFVQDPCFAQGDGLIKLYENFISEFEHRVNPLSLVEIILHVVRQMTDPNVALTFLEKTREKVKSSDEAVILCKTAIGALKLNIGDLQVTKETIEDVEEMLNNLPGVTSVHSRFYDLSSKYYQTIGNHASYYKDALRFLGCVDIKDLPVSEQQERAFTLGLAGLLGEGVFNFGELLMHPVLESLRNTDRQWLIDTLYAFNSGNVERFQTLKTAWGQQPDLAANEAQLLRKIQLLCLMEMTFTRPANHRQLTFEEIAKSAKITVNEVELLVMKALSVGLVKGSIDEVDKRVHMTWVQPRVLDLQQIKGMKDRLEFWCTDVKSMEMLVEHQAHDILT”, the “soluble on expression in E. coli” value was “soluble”.
With “MIDLNGQLHDVQATETLGQALAAARPVSAVVQLHGDLGAGKSTLARALLRALGVAGPIRSPTYTLVERYPLSTGDEAWHLDLYRIGHAGELDFLGLDEGSASLWLVEWPERGAGVLPPVDLDVELAVAGEGRSVRLLGRSAIGHAWMDRLSRQPQLQVLFAASREELEHHHHHH” the “soluble on expression in E. coli” value was “not soluble”.
In the case of “MNKVIKMLVVTLAFLLVLAGCSGNSNKQSSDNKDKETTSIKHAMGTTEIKGKPKRVVTLYQGATDVAVSLGVKPVGAVESWTQKPKFEYIKNDLKDTKIVGQEPAPNLEEISKLKPDLIVASKVRNEKVYDQLSKIAPTVSTDTVFKFKDTTKLMGKALGKEKEAEDLLKKYDDKVAAFQKDAKAKYKDAWPLKASVVNFRADHTRIYAGGYAGEILNDLGFKRNKDLQKQVDNGKDIIQLTSKESIPLMNADHIFVVKSDPNAKDAALVKKTESEWTSSKEWKNLDAVKNNQVSDDLDEITWNLAGGYKSSLKLIDDLYEKLNIEKQSK”, the “soluble on expression in E. coli” value was “not soluble”.
For “AAVIEKRATCSNGKTVGDASCCAWFDVLDDIQQNLFHGGQCGAEAHESIRLVFHDSIAISPAMEAQGKFGGGGADGSIMIFDDIETAFHPNIGLDEIVKLQKPFVQKHGVTPGDFIAFAGAVALSNCPGAPQMNFFTGRAPATQPAPDGLVPEPFHTVDQIINRVNDAGEFDELELVFMLSAHSVAAVNDVDPTVQGLPFDSTPGIFDSQFFVETQLRGTAFPGSGGNQGEVESPLPGEIRIQSDHTIARDSRTACEWQSFVNNQSKLVDDFQFIFLALTQLGQDPNAMTDCSDVIPQSKPIPGNLPFSFFPAGKTIKDVEQACAETPFPTLTTLPGPETSVQRIPPPPGA”, the “soluble on expression in E. coli” value was “soluble”.
For “LTARFTNTELNGYQRLMSYFEEMVKVEDDVCNANKCLLVKLSAEVSDLSEPMRIALRRGADKTIQAMAECIDVGIQDGSIPSGDSALLARQIYYLWNGASLLNKLYQDQEALTQSLTYTQHLLQNTRTCP”, the “soluble on expression in E. coli” value was “not soluble”.
